Measured values as given in paper PMC8809985 (2021).

Columns and labels:
[1] = target: T1, recombinant human tumor necrosis factor alpha (human, UniProt P01375 77-233); assay: BLI
[2] = target: T1, recombinant human tumor necrosis factor …; assay: BLI; remark: listed apart in the source

T1 sequence (P01375 77-233): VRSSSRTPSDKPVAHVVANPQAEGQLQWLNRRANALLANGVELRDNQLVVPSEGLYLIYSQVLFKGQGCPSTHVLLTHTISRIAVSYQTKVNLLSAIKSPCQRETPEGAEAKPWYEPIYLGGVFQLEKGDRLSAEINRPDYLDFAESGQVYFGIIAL

B1: Haidalimumab (antibody, V domains shown)
VH: EVQLVESGGGLVQPGGSLRLSCAASGFPFSNHWMNWVRQAPGKGLEWVGEIRSKSMNSATHYAESVKGRFTISRDDSKNSLYLQMNSLKTEDTAVYYCARNYYGSTYDHWGQGTLVTVSS
VL: EIVLTQSPDFQSVTPKEKVTITCRASQFVGYSIHWYQQKPDQSPKLLIKYASESRSGVPSRFSGSGSGTDFTLTINSLEAEDAATYYCQQSHSWHFTFGQGTKLEIK
koff [1]: 0.00023 s⁻¹ | Kd [2]: 0.774 nM
